Reference: publication PMC9249759, “Analysis of diverse double-strand break synapsis with Polλ reveals basis for unique substrate specificity in nonhomologous end-joining”

Assays:
[1] = target: T1, DNA polymerase lambda catalytic domain with brooch motif (Homo sapiens, UniProt Q9UGP5 235-575); assay: X-ray crystallography, 1.57 A; dUMPNPP, Mg2+; Crystals only: DNA with protein on ice or RT, then 0.91 mM dUMPNPP; SSB cacodylate pH 6.5/KCl/Mg acetate/PEG 8000 RT; DSB.A tripotassium citrate/PEG 3350 4 C; DSB.B Na sulfate/PEG 3350 RT; DSB.C cacodylate pH 6.5/ammonium sulfate/PEG 8K 4 C; DSB.D cacodylate pH 6.5/Ca acetate/PEG 8K 4 C, soaked in Mg acetate; conditions: protein: recombinant; tags: GST tag removed by TEV; 1-nt gap; template with upstream primer and downstream primer
T1 sequence: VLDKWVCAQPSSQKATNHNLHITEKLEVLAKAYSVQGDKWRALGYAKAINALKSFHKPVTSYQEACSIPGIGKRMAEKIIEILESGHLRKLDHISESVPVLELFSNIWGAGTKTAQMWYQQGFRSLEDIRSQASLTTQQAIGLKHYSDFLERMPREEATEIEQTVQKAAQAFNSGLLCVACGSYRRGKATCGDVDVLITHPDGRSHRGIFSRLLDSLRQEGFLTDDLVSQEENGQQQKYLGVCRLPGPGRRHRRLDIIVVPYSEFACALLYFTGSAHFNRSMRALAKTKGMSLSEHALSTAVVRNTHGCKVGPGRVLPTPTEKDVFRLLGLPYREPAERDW

[2] = target: T1, DNA polymerase lambda catalytic domain …; assay: X-ray crystallography, 2 A; dUMPNPP, Mg2+; Crystals only: DNA with protein on ice or RT, then 0.91 mM dUMPNPP; SSB cacodylate pH 6.5/KCl/Mg acetate/PEG 8000 RT; DSB.A tripotassium citrate/PEG 3350 4 C; DSB.B Na sulfate/PEG 3350 RT; DSB.C cacodylate pH 6.5/ammonium sulfate/PEG 8K 4 C; DSB.D cacodylate pH 6.5/Ca acetate/PEG 8K 4 C, soaked in Mg acetate; conditions: protein: recombinant; tags: GST tag removed by TEV; two duplexes: TACTG:CAGTGC (G:T mismatch at -2, 3' overhang 1 nt) and CGGCAG:GCCG (3' overhang 2 nt); 1-nt microhomology
[3] = target: T1, DNA polymerase lambda catalytic domain …; assay: X-ray crystallography, 1.65 A; dUMPNPP, Ca2+/Mg2+ (metal A), Mg2+ (metal B); pre-catalytic; Crystals only: DNA with protein on ice or RT, then 0.91 mM dUMPNPP; SSB cacodylate pH 6.5/KCl/Mg acetate/PEG 8000 RT; DSB.A tripotassium citrate/PEG 3350 4 C; DSB.B Na sulfate/PEG 3350 RT; DSB.C cacodylate pH 6.5/ammonium sulfate/PEG 8K 4 C; DSB.D cacodylate pH 6.5/Ca acetate/PEG 8K 4 C, soaked in Mg acetate; conditions: protein: recombinant; tags: GST tag removed by TEV; two duplexes: blunt GCACTG:CAGTGC and CGGCA:GCCG (3' overhang 1 nt); no microhomology
[4] = target: T2, DNA polymerase lambda catalytic domain with brooch motif (DSB.B crystals) (Homo sapiens, UniProt Q9UGP5 233-575); assay: X-ray crystallography, 2.25 A; dUMPNPP, Mg2+ (metal B), Na+ in HhH2 site; Crystals only: DNA with protein on ice or RT, then 0.91 mM dUMPNPP; SSB cacodylate pH 6.5/KCl/Mg acetate/PEG 8000 RT; DSB.A tripotassium citrate/PEG 3350 4 C; DSB.B Na sulfate/PEG 3350 RT; DSB.C cacodylate pH 6.5/ammonium sulfate/PEG 8K 4 C; DSB.D cacodylate pH 6.5/Ca acetate/PEG 8K 4 C, soaked in Mg acetate; conditions: protein: recombinant; tags: GST tag removed by TEV; single-stranded upstream primer plus duplex CGGCAGC:GCCG (3' overhang 3 nt); 2-nt microhomology; primer 5' end mispairs with same primer of neighbouring complex
T2 sequence: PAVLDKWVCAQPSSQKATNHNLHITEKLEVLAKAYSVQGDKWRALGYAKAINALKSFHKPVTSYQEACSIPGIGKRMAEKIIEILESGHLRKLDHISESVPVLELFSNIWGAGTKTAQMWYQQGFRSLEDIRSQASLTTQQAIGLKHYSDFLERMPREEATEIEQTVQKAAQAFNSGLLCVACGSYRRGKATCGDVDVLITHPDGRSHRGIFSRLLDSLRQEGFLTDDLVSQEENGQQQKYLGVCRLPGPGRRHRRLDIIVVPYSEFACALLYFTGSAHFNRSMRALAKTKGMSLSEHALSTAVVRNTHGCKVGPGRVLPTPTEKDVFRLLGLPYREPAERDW

[5] = target: T1, DNA polymerase lambda catalytic domain …; assay: X-ray crystallography, 1.8 A; dUMPNPP, Na+ (metal A), Mg2+ (metal B); Crystals only: DNA with protein on ice or RT, then 0.91 mM dUMPNPP; SSB cacodylate pH 6.5/KCl/Mg acetate/PEG 8000 RT; DSB.A tripotassium citrate/PEG 3350 4 C; DSB.B Na sulfate/PEG 3350 RT; DSB.C cacodylate pH 6.5/ammonium sulfate/PEG 8K 4 C; DSB.D cacodylate pH 6.5/Ca acetate/PEG 8K 4 C, soaked in Mg acetate; conditions: protein: recombinant; tags: GST tag removed by TEV; two duplexes: ACTG:CAGTGC (3' overhang 2 nt) and CGGCAGC:GCCG (3' overhang 3 nt); 2-nt microhomology, 1-nt gap

B1: 1nt-gapped SSB (dsDNA)
DNA 1: CGGCAGTACTG
DNA 2: CAGTAC
DNA 3: GCCG
modifications: 5'-phosphate on GCCG
Q: Does B1 bind [1]?
A: binds

B2: DSB.C mismatched (dsDNA)
DNA 1: TACTG
DNA 2: CAGTGC
DNA 3: CGGCAG
DNA 4: GCCG
modifications: 5'-phosphate on GCCG
Q: Does B2 bind [2]?
A: binds

B3: DSB.D blunt-ended (dsDNA)
DNA 1: GCACTG
DNA 2: CAGTGC
DNA 3: CGGCA
DNA 4: GCCG
modifications: 5'-phosphate on GCCG
Q: Does B3 bind [3]?
A: binds

B4: DSB.B without upstream template (mixed)
DNA: CAGTGC
? 1: CGGCAGC
? 2: GCCG
modifications: 5'-phosphate on GCCG
Q: Does B4 bind [4]?
A: binds

B5: DSB.A complementary (dsDNA)
DNA 1: ACTG
DNA 2: CAGTGC
DNA 3: CGGCAGC
DNA 4: GCCG
modifications: 5'-phosphate on GCCG
Q: Does B5 bind [5]?
A: binds
